Consider one protein from FireProtDB (doi:10.1021/bi050142b).

The conditions of the data set: Kitasatospora aureofaciens, 30 °C, GdnHCl, reversible: yes (>98%), whole UniProt chain shown.

B1: Guanyl-specific ribonuclease Sa wild type, P05798 (protein)
chain: DVSGTVCLSALPPEATDTLNLIASDGPFPYSQDGVVFQNRESVLPTQSYGYYHEYTVITPGARTRGTRRIITGEATQEDYYTGDHYATFSLIDQTC
With B1, the denaturant m value by setting is: (pH 5.5, CD, None) 2.32 kcal/mol/M; (pH 5.9, CD, None) 2.3 kcal/mol/M. In addition, the unfolding free energy (pH 5.5, CD, None) was 7.5 kcal/mol; the unfolding free energy (pH 5.5, NMR hydrogen exchange) was determined as 2.82 kcal/mol; the unfolding free energy (pH 5.9, CD, None) was found to be 6.7 kcal/mol.
